Test results: US20260201008A1, “SECRETIN-DERIVED GLP1R SELECTIVE AGONISTS” (GUBRA A/S, priority 2023, published 2026)
Numbered stars: 1 amine (or outer) side, 2 acyl side, 3 side chain; on linkers, the order of the positions; unused ones are H or OH. Square brackets hold non-standard residues; d marks the D form. Side chains are listed from the residue outwards. Ends that are not written are not given here. * marks the point of attachment. C20 diacid = O=C(O)CCCCCCCCCCCCCCCCCCC(=O)*; γGlu = O=C(O)[C@H](CCC(=O)[*:2])N[*:1]; AEEA = NCCOCCOCC(=O)O; Aib = CC(C)(N)C(=O)O

B1: SEQ ID NO: 107 (peptide)
peptide: H[Aib]EGTFTSD[Aib]S[Aib]LLEGAALQRFIQWLV-NH2
modifications: N-terminus assumed
SMILES: CC[C@H](C)[C@H](NC(=O)[C@H](Cc1ccccc1)NC(=O)[C@H](CCCNC(=N)N)NC(=O)[C@H](CCC(N)=O)NC(=O)[C@H](CC(C)C)NC(=O)[C@H](C)NC(=O)[C@H](C)NC(=O)CNC(=O)[C@H](CCC(=O)O)NC(=O)[C@H](CC(C)C)NC(=O)[C@H](CC(C)C)NC(=O)C(C)(C)NC(=O)[C@H](CO)NC(=O)C(C)(C)NC(=O)[C@H](CC(=O)O)NC(=O)[C@H](CO)NC(=O)[C@@H](NC(=O)[C@H](Cc1ccccc1)NC(=O)[C@@H](NC(=O)CNC(=O)[C@H](CCC(=O)O)NC(=O)C(C)(C)NC(=O)[C@@H](N)Cc1c[nH]cn1)[C@@H](C)O)[C@@H](C)O)C(=O)N[C@@H](CCC(N)=O)C(=O)N[C@@H](Cc1c[nH]c2ccccc12)C(=O)N[C@@H](CC(C)C)C(=O)N[C@H](C(N)=O)C(C)C
B2: SEQ ID NO: 105 (peptide)
peptide: H[Aib]EGTFTSD[Aib]SGLLEGAALQRFIQWLV-NH2
modifications: N-terminus assumed
SMILES: CC[C@H](C)[C@H](NC(=O)[C@H](Cc1ccccc1)NC(=O)[C@H](CCCNC(=N)N)NC(=O)[C@H](CCC(N)=O)NC(=O)[C@H](CC(C)C)NC(=O)[C@H](C)NC(=O)[C@H](C)NC(=O)CNC(=O)[C@H](CCC(=O)O)NC(=O)[C@H](CC(C)C)NC(=O)[C@H](CC(C)C)NC(=O)CNC(=O)[C@H](CO)NC(=O)C(C)(C)NC(=O)[C@H](CC(=O)O)NC(=O)[C@H](CO)NC(=O)[C@@H](NC(=O)[C@H](Cc1ccccc1)NC(=O)[C@@H](NC(=O)CNC(=O)[C@H](CCC(=O)O)NC(=O)C(C)(C)NC(=O)[C@@H](N)Cc1c[nH]cn1)[C@@H](C)O)[C@@H](C)O)C(=O)N[C@@H](CCC(N)=O)C(=O)N[C@@H](Cc1c[nH]c2ccccc12)C(=O)N[C@@H](CC(C)C)C(=O)N[C@H](C(N)=O)C(C)C
B3: SEQ ID NO: 106 (peptide)
peptide: H[Aib]EGTFTSD[Aib]SYLLEGAALQRFIQWLV-NH2
modifications: N-terminus assumed
SMILES: CC[C@H](C)[C@H](NC(=O)[C@H](Cc1ccccc1)NC(=O)[C@H](CCCNC(=N)N)NC(=O)[C@H](CCC(N)=O)NC(=O)[C@H](CC(C)C)NC(=O)[C@H](C)NC(=O)[C@H](C)NC(=O)CNC(=O)[C@H](CCC(=O)O)NC(=O)[C@H](CC(C)C)NC(=O)[C@H](CC(C)C)NC(=O)[C@H](Cc1ccc(O)cc1)NC(=O)[C@H](CO)NC(=O)C(C)(C)NC(=O)[C@H](CC(=O)O)NC(=O)[C@H](CO)NC(=O)[C@@H](NC(=O)[C@H](Cc1ccccc1)NC(=O)[C@@H](NC(=O)CNC(=O)[C@H](CCC(=O)O)NC(=O)C(C)(C)NC(=O)[C@@H](N)Cc1c[nH]cn1)[C@@H](C)O)[C@@H](C)O)C(=O)N[C@@H](CCC(N)=O)C(=O)N[C@@H](Cc1c[nH]c2ccccc12)C(=O)N[C@@H](CC(C)C)C(=O)N[C@H](C(N)=O)C(C)C
B4: SEQ ID NO: 104 (peptide)
peptide: H[Aib]EGTFTSD[Aib]SRLLEGAALQRFIQWLV-NH2
modifications: N-terminus assumed
SMILES: CC[C@H](C)[C@H](NC(=O)[C@H](Cc1ccccc1)NC(=O)[C@H](CCCNC(=N)N)NC(=O)[C@H](CCC(N)=O)NC(=O)[C@H](CC(C)C)NC(=O)[C@H](C)NC(=O)[C@H](C)NC(=O)CNC(=O)[C@H](CCC(=O)O)NC(=O)[C@H](CC(C)C)NC(=O)[C@H](CC(C)C)NC(=O)[C@H](CCCNC(=N)N)NC(=O)[C@H](CO)NC(=O)C(C)(C)NC(=O)[C@H](CC(=O)O)NC(=O)[C@H](CO)NC(=O)[C@@H](NC(=O)[C@H](Cc1ccccc1)NC(=O)[C@@H](NC(=O)CNC(=O)[C@H](CCC(=O)O)NC(=O)C(C)(C)NC(=O)[C@@H](N)Cc1c[nH]cn1)[C@@H](C)O)[C@@H](C)O)C(=O)N[C@@H](CCC(N)=O)C(=O)N[C@@H](Cc1c[nH]c2ccccc12)C(=O)N[C@@H](CC(C)C)C(=O)N[C@H](C(N)=O)C(C)C

Key:
[1] = biological target: human GLP-1 receptor (hGLP1R) (human, UniProt P43220 24-463); experiment: cell-based or functional assay
[2] = biological target: human secretin receptor (hSCTR) (human, UniProt P47872 23-440); experiment: cell-based or functional assay
Chain of human secretin receptor (hSCTR) (P47872 23-440): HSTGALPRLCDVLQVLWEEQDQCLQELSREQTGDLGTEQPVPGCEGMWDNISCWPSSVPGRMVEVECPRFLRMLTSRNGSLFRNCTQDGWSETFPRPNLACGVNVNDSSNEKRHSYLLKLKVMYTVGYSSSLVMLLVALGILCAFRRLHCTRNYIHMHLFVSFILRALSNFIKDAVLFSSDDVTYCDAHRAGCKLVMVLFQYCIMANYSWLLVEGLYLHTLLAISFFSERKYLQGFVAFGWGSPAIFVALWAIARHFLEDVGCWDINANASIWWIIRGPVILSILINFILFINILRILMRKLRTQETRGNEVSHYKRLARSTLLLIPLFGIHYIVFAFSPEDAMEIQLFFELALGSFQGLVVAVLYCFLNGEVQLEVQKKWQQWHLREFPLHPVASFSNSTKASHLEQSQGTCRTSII

| Binder | pEC50 hGLPR1 [1] | pEC50 hSCTR [2] |
| --- | --- | --- |
| H[Aib]EGTFTSDVSTLK([AEEA-AEEA-γGlu-C20 diacid])EEAATQRFLEHLV-NH2 (also: K14 lipid also given as C18DA[γE][OEG][OEG]-) [SEQ ID NO: 102] | 11 -log M | 7.1 -log M |
| B1 | 9.8 -log M | 6 -log M |
| B2 | 10 -log M | 5.8 -log M |
| H[Aib]EGTFTSDVSRLK([AEEA-AEEA-γGlu-C20 diacid])ELAA[Aib]QRFLEHLV-NH2 (also: K14 lipid also given as C18DA[γE][OEG][OEG]-) [SEQ ID NO: 10] | 9.7 -log M | 6.3 -log M |
| H[Aib]EGTFTSDVSELK([AEEA-AEEA-γGlu-C20 diacid])EEAASQRFLEHLV-NH2 [SEQ ID NO: 87] | 10.4 -log M | 5.8 -log M |
| H[Aib]EGTFTSDVSTLK([AEEA-AEEA-γGlu-C20 diacid])EFAAEQRFLEHLV-NH2 [SEQ ID NO: 89] | 10.7 -log M | 5.7 -log M |
| H[Aib]EGTFTSDVSTLK([AEEA-AEEA-γGlu-C20 diacid])E[Aib]AAQQRFLEHLV-NH2 [SEQ ID NO: 88] | 11.4 -log M | 6.8 -log M |
| H[Aib]EGTFTSDVSTLK([AEEA-AEEA-γGlu-C20 diacid])ETAATQRFLEHLV-NH2 (not fully specified) [SEQ ID NO: 93] | 11 -log M | 6.5 -log M |
| B3 | 10.8 -log M | 5.8 -log M |
| H[Aib]EGTFTSDVSELKELAAQQRFLEHLV-NH2 (not fully specified (residue 14)) [SEQ ID NO: 99] | 10.8 -log M | 6.1 -log M |
| H[Aib]EGTFTSDVSTLKEEAAAQRFLEHLV-NH2 (not fully specified (residue 14)) [SEQ ID NO: 96] | 10.9 -log M | 6.4 -log M |
| H[Aib]EGTFTSDVSFLK([AEEA-AEEA-γGlu-C20 diacid])EFAASQRFLEHLV-NH2 [SEQ ID NO: 91] | 9.5 -log M | 4.5 -log M |
| H[Aib]EGTFTSDVSYLKEEAAEQRFLEHLV-NH2 (not fully specified (residue 14)) [SEQ ID NO: 95] | 10.7 -log M | 4.8 -log M |
| B4 | 9.9 -log M | 6.5 -log M |
| H[Aib]EGTFTSD[Aib]SYLK([AEEA-AEEA-γGlu-C20 diacid])EEA[Aib]LQRFLEHLV-NH2 (also: K14 lipid also given as C18DA[γE][OEG][OEG]-) [SEQ ID NO: 103] | 11.1 -log M | 5 -log M |
| H[Aib]EGTFTSDVSTLK([AEEA-AEEA-γGlu-C20 diacid])EFAAQQRFLEHLV-NH2 (also: K14 lipid also given as C18DA[γE][OEG][OEG]-) [SEQ ID NO: 100] | 9.9 -log M | 6.1 -log M |
| H[Aib]EGTFTSDVSTLK([AEEA-AEEA-γGlu-C20 diacid])ELAAAQRFLEHLV-NH2 (also: K14 lipidated with C20DA[γE][OEG][OEG]- or C18DA[γE][OEG][OEG]-) [SEQ ID NO: 11] | 10.3 -log M | 6.2 -log M |
| H[Aib]EGTFTSDVSELKEEAAAQRFLEHLV-NH2 (not fully specified (residue 14)) [SEQ ID NO: 98] | 10.6 -log M | 5.9 -log M |
| H[Aib]EGTFTSDVSYLKE[Aib]AAQQRFLEHLV-NH2 (not fully specified (residue 14)) [SEQ ID NO: 94] | 11 -log M | 6 -log M |
| H[Aib]EGTFTSDVSELKEEAA[Aib]QRFLEHLV-NH2 (not fully specified (residue 14)) [SEQ ID NO: 97] | 11 -log M | 5.8 -log M |
| H[Aib]EGTFTSDVSVLK([AEEA-AEEA-γGlu-C20 diacid])EFAASQRFLEHLV-NH2 [SEQ ID NO: 92] | 10.1 -log M | 5.8 -log M |
| H[Aib]EGTFTSDVSVLK([AEEA-AEEA-γGlu-C20 diacid])EEAAQQRFLEHLV-NH2 [SEQ ID NO: 90] | 10.5 -log M | 5.8 -log M |
| H[Aib]EGTFTSDVSVLK([AEEA-AEEA-γGlu-C20 diacid])ETAA[Aib]QRFLEHLV-NH2 (also: K14 lipid also given as C18DA[γE][OEG][OEG]-) [SEQ ID NO: 101] | 9.7 -log M | 6 -log M |
